From patent US20250345423A1 (IMUNEXUS THERAPEUTICS, published 2025)
Each block holds one binder with its values, some of them ahead of it.

How the values were obtained:
[1] = molecular target: T1, human recombinant Sclerostin (rhSOST, R&D systems 1406-ST-025/CF) (human, UniProt Q9BQB4 24-213); assay: in-cell ELISA on transfected HEK293 cells, anti-SOST primary antibody, versus mock transfection
T1 sequence (looked up): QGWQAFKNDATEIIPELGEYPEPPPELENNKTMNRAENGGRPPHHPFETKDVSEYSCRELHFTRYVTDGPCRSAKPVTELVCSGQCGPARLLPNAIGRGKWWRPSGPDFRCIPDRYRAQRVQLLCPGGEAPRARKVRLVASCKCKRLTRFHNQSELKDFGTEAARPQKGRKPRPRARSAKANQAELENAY
Protocol: The remainder of the protocol was identical for both cell types. One day before transfection, cells were plated on 96-well microtiter plates that had previously been coated with Poly-D-Lysine (PDL, Gibco, Cat. No. A38904-01) according to the manufacturer's instructions. The ideal cell density for subsequent transfection and in-cell ELISA was empirically determined to be 10,000 cells per well at time of seeding. The day after plating, cells were transfected using the Lipofectamine 3000 transfection kit (Invitrogen, Cat. No. L3000-008). The ideal amount of DNA and Lipofectamine per well was empirically determined to be 100 ng (HEK cells) or 200 ng (CHO cells) of DNA and 0.15 μl of Lipofectamine 3000. Transfections were performed according to the manufacturer's instructions.
All in-cell ELISA experiments were carried out in 96-well microtiter plates. […]

[2] = molecular target: T2, CD80 expressed on Raji cells (UniProt P33681 35-288); assay: cell-to-cell binding: Raji cells on transfected bMSCs (summary of Example 2)
T2 construct: whole, on cells; also called Raji cells expressing CD80; B7-1 on Raji cells
T2 sequence (looked up): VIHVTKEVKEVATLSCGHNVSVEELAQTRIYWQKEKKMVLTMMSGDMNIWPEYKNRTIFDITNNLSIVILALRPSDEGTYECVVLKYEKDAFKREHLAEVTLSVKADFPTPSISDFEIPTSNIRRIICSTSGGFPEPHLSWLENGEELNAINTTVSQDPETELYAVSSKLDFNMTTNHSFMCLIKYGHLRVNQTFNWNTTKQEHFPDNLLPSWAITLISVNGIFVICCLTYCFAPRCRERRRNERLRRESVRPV
Protocol: The required number of Raji cells (100,000 cells for each assay well) were centrifuged and resuspended in an appropriate volume of MSCBM (100 μl/100,000 cells), and the cell suspension was added to the wells containing bMSCs. Plates were incubated for 1 h at RT before the wells were very carefully washed 3× with D-PBS. In-cell ELISA assays were carried out two days after transfection with CTLA-4 BD plasmid DNA. The cell supernatant was aspirated, cells were washed 3× with 300 μl D-PBS (137 mM NaCl, 8.1 mM Na₂HPO₄, 2.68 mM KCl, 1.47 mM KH₂PO₄, 0.9 mM CaCl₂), 0.5 mM MgCl₂), and then fixed by adding 50 μl of a formaldehyde solution (4% in PBS, for example Santa Cruz Biotechnology, Cat. No. SANTS-281692). After 15-20 minutes of incubation at RT, the solution was aspirated and cells were washed 3× with 300 μl D-PBS-T (D-PBS containing 0.05% (w/V) Tween-20). Wells were blocked by incubating with 300 μl of 5% skim milk in D-PBS-T for 1 h at RT. The blocking buffer was aspirated and wells were washed with 3×300 μl D-PBS-T before adding 50 μl of the primary antibody diluted in D-PBS-T (see Table 1 for antibodies and their respective dilutions). […] After 5-15 minutes the reaction was stopped by adding 100 μl 1 M HCl, and absorbance at a wavelength of 450 nm was measured using a micro plate reader. […]

[3] = molecular target: T3, human B7-1 (CD80) protein (Acro Biosystems, B71-H5259) (human, UniProt P33681 35-242); assay: in-cell ELISA on transfected bMSCs, anti-CD80 primary antibody, versus control transfection
T3 sequence (looked up): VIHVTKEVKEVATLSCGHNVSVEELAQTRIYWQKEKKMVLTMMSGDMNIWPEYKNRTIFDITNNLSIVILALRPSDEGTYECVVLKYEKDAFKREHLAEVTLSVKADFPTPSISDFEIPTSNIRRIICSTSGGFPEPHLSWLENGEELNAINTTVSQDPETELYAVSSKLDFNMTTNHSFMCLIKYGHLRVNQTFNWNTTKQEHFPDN
Protocol: Cells were plated on a 96-well plate at a density of 10,000 cells per well. The in-cell ELISA was performed the following day.
All in-cell ELISA experiments were carried out in 96-well microtiter plates. For assays in which the primary antibody was directed against the ligand of the CTLA-4 binding domain, the supernatant of cells expressing the CTLA-4 BD was aspirated, replaced with medium containing the ligand (rhSOST (R&D systems 1406-ST-025/CF) or B7-1/CD80 protein (Acro Biosystems, B71-H5259) at varying concentrations, and incubated for 1 h at RT. For assays in which binding of B-lymphocytes to cells expressing the CTLA-4 binding domain was to be assessed, cells from a lymphoblast-like cell line (Raji cells) were used. The required number of Raji cells (100,000 cells for each assay well) were centrifuged and resuspended in an appropriate volume of MSCBM (100 μl/100,000 cells), and the cell suspension was added to the wells containing bMSCs. Plates were incubated for 1 h at RT before the wells were very carefully washed 3× with D-PBS. In-cell ELISA assays were carried out two days after transfection with CTLA-4 BD plasmid DNA. […]

binding result [1]: binds
B1: BD_SOST (CTLA-4 binding domain directed against human sclerostin), displayed on the cell surface from the display vector (designed binder)
chain: KAMHVAQPAVVLASSRGIASFVCEYTVSWVDMEVRVTVLRQADSQVTEVCAATYWNGRWLTFLDDSICTGTSSGNQVNLTIQGLRAMDTGLYICKVQLDPSWGYYWQGYEGIGNGTQIYVIDPEPSPDSNAGGGGSGGGGSGGGGSAEQKLISEEDLNAVGQDTQEVIVVPHSLPFKVVVISAILALVVLTIISLIILIMLWQKKPR

binding result [2]: binds
binding result [3]: binds
B2: BD_B7 (CTLA-4 binding domain directed against B7.1 (CD80)), displayed on the cell surface from the display vector (designed binder)
chain: KAMHVAQPAVVLASSRGIASFVCEYASPGKYTEVRVTVLRQADSQVTEVCAATYMTGNELTFLDDSICTGTSSGNQVNLTIQGLRAMDTGLYICKVELMYPPPYYLGIGNGTQIYVIDPEPSPDSNAGGGGSGGGGSGGGGSAEQKLISEEDLNAVGQDTQEVIVVPHSLPFKVVVISAILALVVLTIISLIILIMLWQKKPR
notes: also called CTLA-4 BD directed against B7-1
